Experiments:
Test in all cases: IP/MS, LZTR1 R810W-FLAG, U87
[1] = biological target: T1, PPFIBP1 (human, UniProt Q86W92 1-1011, limits assumed)
T1 sequence (looked up): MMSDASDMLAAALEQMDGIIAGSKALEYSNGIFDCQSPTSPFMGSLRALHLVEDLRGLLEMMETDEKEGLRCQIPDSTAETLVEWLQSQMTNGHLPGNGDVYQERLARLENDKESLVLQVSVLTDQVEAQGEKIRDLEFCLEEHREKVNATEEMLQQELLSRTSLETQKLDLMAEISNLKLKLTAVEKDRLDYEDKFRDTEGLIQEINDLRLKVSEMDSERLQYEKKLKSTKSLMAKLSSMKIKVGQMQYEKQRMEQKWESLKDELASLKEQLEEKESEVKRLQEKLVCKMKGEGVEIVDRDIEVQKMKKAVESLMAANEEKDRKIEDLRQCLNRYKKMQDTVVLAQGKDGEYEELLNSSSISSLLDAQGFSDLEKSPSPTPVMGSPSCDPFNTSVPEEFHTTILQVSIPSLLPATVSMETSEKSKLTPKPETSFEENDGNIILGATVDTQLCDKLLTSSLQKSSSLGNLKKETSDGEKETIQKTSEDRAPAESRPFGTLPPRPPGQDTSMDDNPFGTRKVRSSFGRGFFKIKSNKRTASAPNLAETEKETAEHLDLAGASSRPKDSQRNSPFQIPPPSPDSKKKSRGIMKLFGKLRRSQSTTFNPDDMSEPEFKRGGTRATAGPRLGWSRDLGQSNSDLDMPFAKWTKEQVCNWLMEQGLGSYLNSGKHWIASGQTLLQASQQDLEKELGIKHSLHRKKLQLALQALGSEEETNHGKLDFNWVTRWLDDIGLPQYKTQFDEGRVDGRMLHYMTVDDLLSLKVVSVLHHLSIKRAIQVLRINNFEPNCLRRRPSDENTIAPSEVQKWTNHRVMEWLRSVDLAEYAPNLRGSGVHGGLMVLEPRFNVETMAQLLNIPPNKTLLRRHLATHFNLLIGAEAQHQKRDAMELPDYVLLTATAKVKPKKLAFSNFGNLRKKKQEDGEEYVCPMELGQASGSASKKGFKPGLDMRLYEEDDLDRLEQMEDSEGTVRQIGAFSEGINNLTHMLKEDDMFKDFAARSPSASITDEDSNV
In short: (§1)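 Extracted peptides in 3% acetonitrile/0.1% formic acid ran on a 50 cm C18 column into an Orbitrap Fusion, with MaxQuant identification and spectral counting.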

[2] = biological target: ASXL1 (human, UniProt Q8IXJ9 1-1541, limits assumed)
ASXL1, sequence (Q8IXJ9 whole entry): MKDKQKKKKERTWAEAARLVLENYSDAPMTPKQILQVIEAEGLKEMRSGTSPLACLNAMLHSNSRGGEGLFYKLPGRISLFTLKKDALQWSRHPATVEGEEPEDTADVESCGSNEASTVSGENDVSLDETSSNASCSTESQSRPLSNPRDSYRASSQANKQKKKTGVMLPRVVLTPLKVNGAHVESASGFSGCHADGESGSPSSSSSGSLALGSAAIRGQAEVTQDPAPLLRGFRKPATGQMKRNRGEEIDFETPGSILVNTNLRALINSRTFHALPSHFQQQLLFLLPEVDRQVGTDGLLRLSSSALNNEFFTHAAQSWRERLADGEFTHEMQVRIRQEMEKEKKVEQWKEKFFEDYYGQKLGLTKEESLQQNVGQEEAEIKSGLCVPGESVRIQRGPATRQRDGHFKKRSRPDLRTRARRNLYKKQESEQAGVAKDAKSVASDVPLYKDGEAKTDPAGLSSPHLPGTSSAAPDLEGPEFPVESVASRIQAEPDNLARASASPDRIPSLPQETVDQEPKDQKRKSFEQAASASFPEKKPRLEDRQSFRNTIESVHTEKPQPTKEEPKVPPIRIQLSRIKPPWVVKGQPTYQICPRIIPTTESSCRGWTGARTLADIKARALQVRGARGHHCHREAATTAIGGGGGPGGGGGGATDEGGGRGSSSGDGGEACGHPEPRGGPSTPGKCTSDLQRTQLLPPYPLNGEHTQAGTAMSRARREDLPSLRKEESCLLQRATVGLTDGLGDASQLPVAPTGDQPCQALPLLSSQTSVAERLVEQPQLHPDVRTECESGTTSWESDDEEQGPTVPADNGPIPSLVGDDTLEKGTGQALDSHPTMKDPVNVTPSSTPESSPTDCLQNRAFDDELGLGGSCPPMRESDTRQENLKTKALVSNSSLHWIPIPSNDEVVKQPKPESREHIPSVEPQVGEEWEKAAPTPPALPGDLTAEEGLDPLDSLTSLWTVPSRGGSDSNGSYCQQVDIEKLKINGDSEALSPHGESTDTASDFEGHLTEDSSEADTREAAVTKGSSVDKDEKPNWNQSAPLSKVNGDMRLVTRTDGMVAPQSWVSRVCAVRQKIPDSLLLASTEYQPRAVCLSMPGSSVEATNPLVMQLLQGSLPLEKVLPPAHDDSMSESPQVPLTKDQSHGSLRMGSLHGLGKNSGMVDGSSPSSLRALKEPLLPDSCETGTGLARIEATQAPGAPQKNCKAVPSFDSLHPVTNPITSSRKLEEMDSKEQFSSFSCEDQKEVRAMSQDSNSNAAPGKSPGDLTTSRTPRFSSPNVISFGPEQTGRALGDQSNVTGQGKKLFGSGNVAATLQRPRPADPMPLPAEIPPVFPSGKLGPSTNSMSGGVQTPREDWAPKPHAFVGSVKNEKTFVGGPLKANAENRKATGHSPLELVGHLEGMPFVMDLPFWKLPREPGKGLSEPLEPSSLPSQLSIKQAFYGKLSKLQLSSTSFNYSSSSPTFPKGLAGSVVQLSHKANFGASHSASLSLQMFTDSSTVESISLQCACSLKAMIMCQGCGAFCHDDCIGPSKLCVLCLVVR
In short: as §1

[3] = biological target: T2, FBX038 (human, UniProt Q6PIJ6 1-1188, limits assumed)
T2 construct: Printed with a zero; probably FBXO38
T2 sequence (looked up): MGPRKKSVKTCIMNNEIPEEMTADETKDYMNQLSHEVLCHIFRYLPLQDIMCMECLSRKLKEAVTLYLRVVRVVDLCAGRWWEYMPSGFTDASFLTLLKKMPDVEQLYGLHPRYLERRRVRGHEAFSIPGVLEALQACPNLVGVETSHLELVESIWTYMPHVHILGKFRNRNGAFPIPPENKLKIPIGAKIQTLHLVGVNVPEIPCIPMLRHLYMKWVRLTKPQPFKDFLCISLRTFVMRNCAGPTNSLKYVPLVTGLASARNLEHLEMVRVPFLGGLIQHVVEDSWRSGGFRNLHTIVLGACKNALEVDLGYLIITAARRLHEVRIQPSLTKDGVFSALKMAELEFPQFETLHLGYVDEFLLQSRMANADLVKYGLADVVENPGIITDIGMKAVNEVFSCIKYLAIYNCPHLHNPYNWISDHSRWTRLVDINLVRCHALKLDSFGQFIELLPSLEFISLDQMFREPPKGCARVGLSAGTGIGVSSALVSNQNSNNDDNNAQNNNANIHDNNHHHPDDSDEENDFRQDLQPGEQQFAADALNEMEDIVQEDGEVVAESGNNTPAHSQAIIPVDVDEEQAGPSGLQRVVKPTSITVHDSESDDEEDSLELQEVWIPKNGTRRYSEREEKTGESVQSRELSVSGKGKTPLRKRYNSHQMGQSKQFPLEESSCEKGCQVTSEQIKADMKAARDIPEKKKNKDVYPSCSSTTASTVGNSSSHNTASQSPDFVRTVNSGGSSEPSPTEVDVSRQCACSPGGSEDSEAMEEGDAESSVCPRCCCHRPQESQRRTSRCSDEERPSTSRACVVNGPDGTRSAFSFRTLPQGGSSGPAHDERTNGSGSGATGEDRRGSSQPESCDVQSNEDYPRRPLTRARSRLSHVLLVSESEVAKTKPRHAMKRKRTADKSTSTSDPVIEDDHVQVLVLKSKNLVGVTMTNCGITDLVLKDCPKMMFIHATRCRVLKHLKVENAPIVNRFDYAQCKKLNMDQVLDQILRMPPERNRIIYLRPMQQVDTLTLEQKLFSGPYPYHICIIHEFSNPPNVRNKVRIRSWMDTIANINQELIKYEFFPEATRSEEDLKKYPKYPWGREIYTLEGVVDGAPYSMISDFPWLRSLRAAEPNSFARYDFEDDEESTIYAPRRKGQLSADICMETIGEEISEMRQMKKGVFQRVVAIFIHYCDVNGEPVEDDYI
In short: as §1

Measured: binding result

B1: LZTR1 R810W-FLAG (other, human, UniProt Q8N653 1-840, looked up)
chain: MAGPGSTGGQIGAAALAGGARSKVAPSVDFDHSCSDSVEYLTLNFGPFETVHRWRRLPPCDEFVGARRSKHTVVAYKDAIYVFGGDNGKTMLNDLLRFDVKDCSWCRAFTTGTPPAPRYHHSAVVYGSSMFVFGGYTGDIYSNSNLKNKNDLFEYKFATGQWTEWKIEGRLPVARSAHGATVYSDKLWIFAGYDGNARLNDMWTIGLQDRELTCWEEVAQSGEIPPSCCNFPVAVCRDKMFVFSGQSGAKITNNLFQFEFKDKTWTRIPTEHLLRGSPPPPQRRYGHTMVAFDRHLYVFGGAADNTLPNELHCYDVDFQTWEVVQPSSDSEVGGAEVPERACASEEVPTLTYEERVGFKKSRDVFGLDFGTTSAKQPTQPASELPSGRLFHAAAVISDAMYIFGGTVDNNIRSGEMYRFQFSCYPKCTLHEDYGRLWESRQFCDVEFVLGEKEECVQGHVAIVTARSRWLRRKITQARERLAQKLEQEAAPVPREAPGVAAGGARPPLLHVAIREAEARPFEVLMQFLYTDKIKYPRKGHVEDVLLIMDVYKLALSFQLCRLEQLCRQYIEASVDLQNVLVVCESAARLQLSQLKEHCLNFVVKESHFNQVIMMKEFERLSSPLIVEIVRRKQQPPPRTPLDQPVDIGTSLIQDMKAYLEGAGAEFCDITLLLDGHPRPAHKAILAARSSYFEAMFRSFMPEDGQVNISIGEMVPSRQAFESMLRYIYYGEVNMPPEDSLYLFAAPYYYGFYNNRLQAYCKQNLEMNVTVQNVLQILEAADKTQALDMKRHCLHIIVHQFTKVSKLPTLWSLSQQLLLDIIDSLASHISDKQCAELGADI
notes: Stably expressed in U87 cells by lentivirus; also called LZTR1-FLAG-R810W; LZTR1 RW; not shown: FLAG tag
binds: all assays above

— US20250262210A1 (TRUSTEES OF COLUMBIA UNIVERSITY IN THE CITY OF NEW YORK, published 2025)
